Reference: publication PMC11798926

Target: myc-tagged SynDIG4 (wild type), Q6MG82
Assay: co-immunoprecipitation (IP: HA, blot: myc), quantified
Details: chain shown with the change; HEK293T cells; fourth bar chart of panel D (µ2 FLD vs µ2 ALS); parent: est. 100; read off a plot

Sequence of myc-tagged SynDIG4 (wild type), Q6MG82 (Q6MG82 whole entry): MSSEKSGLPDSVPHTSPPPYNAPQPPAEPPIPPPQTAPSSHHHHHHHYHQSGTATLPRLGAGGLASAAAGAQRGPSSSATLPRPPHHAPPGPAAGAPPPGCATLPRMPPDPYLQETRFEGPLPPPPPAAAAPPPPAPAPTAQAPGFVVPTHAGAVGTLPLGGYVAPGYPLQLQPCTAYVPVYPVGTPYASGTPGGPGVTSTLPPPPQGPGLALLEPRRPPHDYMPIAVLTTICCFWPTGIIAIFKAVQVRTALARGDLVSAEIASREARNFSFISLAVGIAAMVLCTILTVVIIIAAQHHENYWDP

B1: HA-tagged μ2 AP subunit, Q96CW1 FLD→ALS (protein)
chain: MIGGLFIYNHKGEVLISRVYRDDIGRNAVDAFRVNVIHARQQVRSPVTNIARTSFFHVKRSNIWLAAVTKQNVNAAMVFEFLYKMCDVMAAYFGKISEENIKNNFVLIYELLDEILDFGYPQNSETGALKTFITQQGIKSQHQTKEEQSQITSQVTGQIGWRREGIKYRRNELALSVLESVNLLMSPQGQVLSAHVSGRVVMKSYLSGMPECKFGMNDKIVIEKQGKGTADETSKSGKQSIAIDDCTFHQCVRLSKFDSERSISFIPPDGEFELMRYRTTKDIILPFRVIPLVREVGRTKLEVKVVIKSNFKPSLLAQKIEVRIPTPLNTSGVQVICMKGKAKYKASENAIVWKIKRMAGMKESQISAEIELLPTNDKKKWARPPISMNFEVPFAPSGLKVRYLKVFEPKLNYSDHDVIKWVRYIGRSGIYETRC
For B1, the percent of parent was 50 % µ2.
